{"source": "paper PMC10774444", "about": "“BPG4 regulates chloroplast development and homeostasis by suppressing GLK transcription factors and involving light and brassinosteroid signaling”", "target": "T1, GST-GLK1 (Arabidopsis thaliana, UniProt Q9SIV3 1-420)", "T1 sequence": "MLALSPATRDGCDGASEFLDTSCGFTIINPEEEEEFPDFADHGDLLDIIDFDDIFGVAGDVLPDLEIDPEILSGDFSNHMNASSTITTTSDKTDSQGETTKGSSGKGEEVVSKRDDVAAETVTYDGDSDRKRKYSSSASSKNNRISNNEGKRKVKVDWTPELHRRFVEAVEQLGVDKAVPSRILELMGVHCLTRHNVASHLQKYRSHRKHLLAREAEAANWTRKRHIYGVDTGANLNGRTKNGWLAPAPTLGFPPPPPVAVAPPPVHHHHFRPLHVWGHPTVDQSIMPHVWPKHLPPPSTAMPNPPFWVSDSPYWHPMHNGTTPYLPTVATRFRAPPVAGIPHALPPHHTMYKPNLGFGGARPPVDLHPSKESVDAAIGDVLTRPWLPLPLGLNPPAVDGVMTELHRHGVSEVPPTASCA", "test": "EMSA; without BPG4; GLK1 EMSA: 10 mM Tris-HCl pH 8.0, 50 mM KCl, 10 mM EDTA, 2.5% glycerol, 1 mM DTT, 0.05 ug/ul poly(dI-dC), 5 pmol probe; proteins preincubated on ice 5 min then", "details": "protein: recombinant; tags: N-term GST (pGEX-6P-3); label: FAM; blunt"}
{"binder": "CAO-probe (dsDNA) DNA 1: TTTAGATCCCATGATTCTCAACACGACTGA DNA 2: TCAGTCGTGTTGAGAATCATGGGATCTAAA", "values": [{"measurement": "binding result", "value": "binds"}]}
